The supplement of paper PMC10201428
± gives the standard deviation of the averaged measurements.

Legend:
[1] = system: VchCAST RNA-guided transposition machinery (E. coli BL21(DE3) host, lacZ target); experiment: relative integration efficiency (T-LR orientation) vs wild-type transposon end (log2 (normalized fold change)); transposon end mutated: right end (5 bp flank + 75 bp right end); higher = more efficient transposition
Procedure, shortened: (§1)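 A T7-driven effector plasmid encoding a CRISPR array, tniQ-cas8-cas7-cas6 and tnsA-tnsB-tnsC was co-transformed into E. coli BL21(DE3) together with a pUC57 mini-transposon donor holding barcoded pools of 1549 left-end or 1849 right-end variants. Transformants were plated with 0.1 mM IPTG at 37°C for 18 h. Illumina sequencing of PCR-amplified input plasmids and genomic integration junctions gave barcode abundances, and relative integration efficiency is their output/input fold change, normalised to reference barcodes and log-transformed.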

[2] = system: VchCAST RNA-guided transposition machinery (E. coli BL21(DE3) host, lacZ target); experiment: relative integration efficiency (T-RL orientation) vs wild-type transposon end (log2 (normalized fold change)); transposon end mutated: right end (5 bp flank + 75 bp right end); higher = more efficient transposition
Procedure, shortened: as §1

ACATTTGTTGATACAACCATAAAATGATAATTAGACCCCATAATTGATAATTATCACACCCATAAATTGATATTGCCTCTGATCATAGTCAGACCAACATTGCTACGACCCGTATTCGCACCGACAC
relative integration efficiency (log2) [1]: -3.27 ± 0.54
relative integration efficiency (log2) [2]: -3.4826 ± 0.0031

ACATTTGTTGATACAACCATAAAATGATAATTAGTCCCATAAATTGATAATTATCACACCCATAAATTGATATTGCCTCTGATCATAGTCAGACCAACATTGCTACGACCCGTATTCGCACCGACAC
relative integration efficiency (log2) [1]: -0.924 ± 0.37
relative integration efficiency (log2) [2]: -0.921 ± 0.049

ACATTTGTTGATACAACCATAAAATGATAATTAGTGGCATAAATTGATAATTATCACACCCATAAATTGATATTGCCTCTGATCATAGTCAGACCAACATTGCTACGACCCGTATTCGCACCGACAC
relative integration efficiency (log2) [1]: -1.87 ± 0.24
relative integration efficiency (log2) [2]: -1.91 ± 0.16

ACATTTGTTGATACAACCATAAAATGATAATTAGTGGGTATTTAACTATTAATTCACACCCATAAATTGATATTGCCTCTGATCATAGTCAGACCAACATTGCTACGACCCGTATTCGCACCGACAC
relative integration efficiency (log2) [1]: -3.02 ± 0.35
relative integration efficiency (log2) [2]: -3.76 ± 0.071

ACATTTGTTGATACAACCATAAAATGATAATTAGTGGGTATTTAACTATTAATTCAGTGGGTATTTAACTATAACGCTCTGATCATAGTCAGACCAACATTGCTACGACCCGTATTCGCACCGACAC
relative integration efficiency (log2) [1]: 1.17 ± 0.31
relative integration efficiency (log2) [2]: -2.37 ± 0.12

ACATTTGTTGATACAACCATAAAATGATAATTATAATTATCATTTTATGGTTGTCACAACCATAAAATGATAATTACTCTGATCATAGTCAGACCAACATTGCTACGACCCGTATTCGCACCGACAC
relative integration efficiency (log2) [1]: -1.19 ± 0.18
relative integration efficiency (log2) [2]: -3.2 ± 0.33

ACATTTGTTGATACAACCATAAAATGATAATTATAATTATCATTTTATGGTTGTCATAATTATCATTTTATGGTTGCTCTGATCATAGTCAGACCAACATTGCTACGACCCGTATTCGCACCGACAC
relative integration efficiency (log2) [1]: 0.158 ± 0.76
relative integration efficiency (log2) [2]: -2.61 ± 0.67

ACATTTGTTGATACAACCATAAAATGATAATTCAACCCATAAATTGATAATTATCACACCCATAAATTGATATTGCCTCTGATCATAGTCAGACCAACATTGCTACGACCCGTATTCGCACCGACAC
relative integration efficiency (log2) [1]: 0.119 ± 0.3
relative integration efficiency (log2) [2]: 0.0959 ± 0.067

ACATTTGTTGATACAACCATAAAATGATAATTCACAAACGCCCGGTCGCCGGCGACACAAACGCCCGGTCGCGGTAAGAGGATCATAGTCAGACCAACATTGCTACGACCCGTATTCGCACCGACAC
relative integration efficiency (log2) [1]: 1.4 ± 0.079
relative integration efficiency (log2) [2]: -1.9 ± 0.14

ACATTTGTTGATACAACCATAAAATGATAATTCACACCATAAATTGATAATTATCACACCCATAAATTGATATTGCCTCTGATCATAGTCAGACCAACATTGCTACGACCCGTATTCGCACCGACAC
relative integration efficiency (log2) [1]: -0.473 ± 0.22
relative integration efficiency (log2) [2]: -0.218 ± 0.014

ACATTTGTTGATACAACCATAAAATGATAATTCACCCATAAATTGATAATTATCACACCCACATTTAACTATAACGCTCTGATCATAGTCAGACCAACATTGCTACGACCCGTATTCGCACCGACAC
relative integration efficiency (log2) [1]: 1.31 ± 0.058
relative integration efficiency (log2) [2]: -2.03 ± 0.22

ACATTTGTTGATACAACCATAAAATGATAATTCACCCATAAATTGATAATTATCACACCCATAAATTGATATTGCCTCTGATCATAGTCAGACCAACATTGCTACGACCCGTATTCGCACCGACACT
relative integration efficiency (log2) [1]: -0.727 ± 0.39
relative integration efficiency (log2) [2]: -1.27 ± 0.026

ACATTTGTTGATACAACCATAAAATGATAATTCACCCATAAATTGATAATTATCACACCCCAATTTAACTATAACGCTCTGATCATAGTCAGACCAACATTGCTACGACCCGTATTCGCACCGACAC
relative integration efficiency (log2) [1]: 1.7 ± 0.066
relative integration efficiency (log2) [2]: -1.88 ± 0.17

ACATTTGTTGATACAACCATAAAATGATAATTCACCCATCAATTGATAATTATCACACCCCAATTTAACTATAACGCTCTGATCATAGTCAGACCAACATTGCTACGACCCGTATTCGCACCGACAC
relative integration efficiency (log2) [1]: -0.128 ± 0.16
relative integration efficiency (log2) [2]: -3.27 ± 0.064

ACATTTGTTGATACAACCATAAAATGATAATTCACCCCTAAATTGATAATTATCACACCCACATTTAACTATAACGCTCTGATCATAGTCAGACCAACATTGCTACGACCCGTATTCGCACCGACAC
relative integration efficiency (log2) [1]: -0.17 ± 0.1
relative integration efficiency (log2) [2]: -3.72 ± 0.048

ACATTTGTTGATACAACCATAAAATGATAATTCCACCCATAAATTGATAATTCTCACACCCATAAATTGATATTGACTCTGATCATAGTCAGACCAACATTGCTACGACCCGTATTCGCACCGACAC
relative integration efficiency (log2) [1]: -0.163 ± 0.16
relative integration efficiency (log2) [2]: -0.563 ± 0.1

ACATTTGTTGATACAACCATAAAATGATAATTCCACCCATACATTGATAATTATCACACCCAATTTAACTATAACGCTCTGATCATAGTCAGACCAACATTGCTACGACCCGTATTCGCACCGACAC
relative integration efficiency (log2) [1]: 0.785 ± 0.032
relative integration efficiency (log2) [2]: -2.42 ± 0.38

ACATTTGTTGATACAACCATAAAATGATAATTCCACCCCTAAATTGATAATTATCACACCCAATTTAACTATAACGCTCTGATCATAGTCAGACCAACATTGCTACGACCCGTATTCGCACCGACAC
relative integration efficiency (log2) [1]: -0.0192 ± 0.33
relative integration efficiency (log2) [2]: -3.1 ± 0.3

ACATTTGTTGATACAACCATAAAATGATAATTCCACCCCTACATTGATAATTATCACACCCAATTTAACTATAACGCTCTGATCATAGTCAGACCAACATTGCTACGACCCGTATTCGCACCGACAC
relative integration efficiency (log2) [1]: 0.35 ± 0.091
relative integration efficiency (log2) [2]: -3.18 ± 0.52

ACATTTGTTGATACAACCATAAAATGATAATTTCACCCATAAATTGATAATTTTCACACCCATAAATTGATATTGGCTCTGATCATAGTCAGACCAACATTGCTACGACCCGTATTCGCACCGACAC
relative integration efficiency (log2) [1]: -0.0323 ± 0.56
relative integration efficiency (log2) [2]: -0.335 ± 0.13

ACATTTGTTGATACAACCATAAAATGATAATTTGACCCATAAATTGATAATTATCACACCCATAAATTGATATTGCCTCTGATCATAGTCAGACCAACATTGCTACGACCCGTATTCGCACCGACAC
relative integration efficiency (log2) [1]: -0.216 ± 0.13
relative integration efficiency (log2) [2]: -0.692 ± 0.19

ACATTTGTTGATACAACCATAAAATGATAATTTGTGCCATAAATTGATAATTATCACACCCATAAATTGATATTGCCTCTGATCATAGTCAGACCAACATTGCTACGACCCGTATTCGCACCGACAC
relative integration efficiency (log2) [1]: -1.18 ± 0.14
relative integration efficiency (log2) [2]: -1.7 ± 0.25

ACATTTGTTGATACAACCATAAAATGATACACCCATAAATTGATAATTATCACACCCATAAATTGATATTGCCTCTGATCATAGTCAGACCAACATTGCTACGACCCGTATTCGCACCGACACTGAC
relative integration efficiency (log2) [1]: -2.04 ± 0.42
relative integration efficiency (log2) [2]: -4.54 ± 0.12

ACATTTGTTGATACAACCATAAAATGATACGGCACAAACGCCCGGTCGCCGGCGACACAAACGCCCGGTCGCGGTAAGAGGATCATAGTCAGACCAACATTGCTACGACCCGTATTCGCACCGACAC
relative integration efficiency (log2) [1]: 0.976 ± 0.29
relative integration efficiency (log2) [2]: -2.2 ± 0.14

ACATTTGTTGATACAACCATAAAATGATACGGCCACCCATAAATTGATAATTATCACACCCATAAATTGATATTGCCTCTGATCATAGTCAGACCAACATTGCTACGACCCGTATTCGCACCGACAC
relative integration efficiency (log2) [1]: -0.393 ± 0.37
relative integration efficiency (log2) [2]: -0.7776 ± 0.00016

ACATTTGTTGATACAACCATAAAATGATACGGCCACCCATAAATTGATACGGCTCACACCCATAAATTGATAGGTACTCTGATCATAGTCAGACCAACATTGCTACGACCCGTATTCGCACCGACAC
relative integration efficiency (log2) [1]: 0.469 ± 0.35
relative integration efficiency (log2) [2]: -1.54 ± 0.28

ACATTTGTTGATACAACCATAAAATGATACGTACACCCATAAATTGATAATTATCACACCCATAAATTGATATTGCCTCTGATCATAGTCAGACCAACATTGCTACGACCCGTATTCGCACCGACAC
relative integration efficiency (log2) [1]: -0.504 ± 0.23
relative integration efficiency (log2) [2]: -0.82 ± 0.068

ACATTTGTTGATACAACCATAAAATGATACTTACACCCATAAATTGATACTTATCACACCCATAAATTGATAGTGCCTCTGATCATAGTCAGACCAACATTGCTACGACCCGTATTCGCACCGACAC
relative integration efficiency (log2) [1]: -0.0216 ± 0.18
relative integration efficiency (log2) [2]: -0.987 ± 0.027

ACATTTGTTGATACAACCATAAAATGATATAATCACCCATAAATTGATAATTATCACACCCATAAATTGATATTGCCTCTGATCATAGTCAGACCAACATTGCTACGACCCGTATTCGCACCGACAC
relative integration efficiency (log2) [1]: -0.788 ± 0.69
relative integration efficiency (log2) [2]: -0.575 ± 0.093

ACATTTGTTGATACAACCATAAAATGATATAATCACCCATAAATTGATATAATTCACACCCATAAATTGATAAACGCTCTGATCATAGTCAGACCAACATTGCTACGACCCGTATTCGCACCGACAC
relative integration efficiency (log2) [1]: 0.045 ± 0.14
relative integration efficiency (log2) [2]: -1.01 ± 0.15

ACATTTGTTGATACAACCATAAAATGATATATACACCCATAAATTGATAATTATCACACCCATAAATTGATATTGCCTCTGATCATAGTCAGACCAACATTGCTACGACCCGTATTCGCACCGACAC
relative integration efficiency (log2) [1]: 0.0362 ± 0.23
relative integration efficiency (log2) [2]: -0.131 ± 0.097

ACATTTGTTGATACAACCATAAAATGATATTTACACCCATAAATTGATATTTATCACACCCATAAATTGATAATGCCTCTGATCATAGTCAGACCAACATTGCTACGACCCGTATTCGCACCGACAC
relative integration efficiency (log2) [1]: -0.16 ± 0.048
relative integration efficiency (log2) [2]: -0.257 ± 0.19

ACATTTGTTGATACAACCATAAAATGATCACCCATAAATTGATAATTATCACACCCATAAATTGATATTGCCTCTGATCATAGTCAGACCAACATTGCTACGACCCGTATTCGCACCGACACTGACT
relative integration efficiency (log2) [1]: -0.722 ± 0.27
relative integration efficiency (log2) [2]: -4.08 ± 0.34

ACATTTGTTGATACAACCATAAAATGATCATTACACCCATAAATTGATAATTATCACACCCCATTTAACTATAACGCTCTGATCATAGTCAGACCAACATTGCTACGACCCGTATTCGCACCGACAC
relative integration efficiency (log2) [1]: 1.74 ± 0.078
relative integration efficiency (log2) [2]: -2.04 ± 0.29

ACATTTGTTGATACAACCATAAAATGATCATTACACCCATAAATTGATAATTATCCCACCCAATTTAACTATAACGCTCTGATCATAGTCAGACCAACATTGCTACGACCCGTATTCGCACCGACAC
relative integration efficiency (log2) [1]: 2.27 ± 0.065
relative integration efficiency (log2) [2]: -1.52 ± 0.18
